These results are taken from patent publication US8075919B2, “Methods for fabrication, uses and compositions of small spherical particles prepared by controlled phase separation” (Baxter International Inc., priority 2003, dated 2011).

The target of series [1] is porcine pancreatic elastase (PPE) (Sus scrofa, UniProt P00772). Kind of series: Inhibition of porcine pancreatic elastase by rAAT (specific activity). In kind it is biochemical. The procedure: To determine the specific activity, the rAAT small spherical particles were dissolved in 0.2M Tris-HCl pH 8.0 at room temperature. The resulting solution was analyzed by an assay which measures the capacity of rAAT to inhibit the ability of porcine pancreatic elastase (PPE) to hydrolyze synthetic peptides that contain a p-nitroanilide group at their C-terminus. The same solution of rAAT small spherical particles was then assayed for protein concentration using the Bicinchoninic Acid (BCA) assay. A control rAAT starting material solution was also analyzed in both assays. Because the activity assay was developed to determine the activity based on a concentration of 1 mg/ml protein per sample, the activity value was corrected based on the actual protein concentration as determined by BCA, giving the specific activity value:
[formula] Inhibition of Porcine Pancreatic Elastase by rAAT

Series [2] concerns DNA-Methyl Green. The note with it: listed value for the starting material; cited from earlier work.

Sequence of porcine pancreatic elastase (PPE) (P00772 27-266): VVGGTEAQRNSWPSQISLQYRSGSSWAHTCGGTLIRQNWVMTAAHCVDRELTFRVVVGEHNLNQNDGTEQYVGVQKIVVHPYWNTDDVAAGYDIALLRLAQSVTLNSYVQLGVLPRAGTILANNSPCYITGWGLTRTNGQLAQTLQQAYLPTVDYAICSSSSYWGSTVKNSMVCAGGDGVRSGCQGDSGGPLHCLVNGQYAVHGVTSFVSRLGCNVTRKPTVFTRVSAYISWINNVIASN

In the case of “alpha-1-antitrypsin [control rAAT starting material]”, the specific activity is 64.34 ± 4.95 IU/mg in series [1] (scale 100-300 mg (n = 12, column)) and 65.87 ± 0.98 IU/mg in series [1] (scale 200-300 mg (n = 8, vessel)). For DNase [DNase starting material], the “theoretical activity as listed” value in series [2] is reported as 775 Ku/mg protein.
